Experiment: soluble fraction after stress (log2 fold change); higher = more stays soluble; pooled small domains, quantitative proteomics
Settings: stress: 50 degC
Method in brief: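 Each library was heated to 50°C as a stress step. The libraries, made up of small protein domains, were pooled and analysed at high throughput by quantitative proteomics. The reported value is the base-two logarithm of the fold change in each protein's soluble amount after stress, taken as a measure of aggregation propensity. The higher the value, the more protein stays in solution.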

Sequence	soluble fraction (log2)
HMHHIDYKQLRRINPVAARRAVLDYLESTGGNITKTAQVFSINRSVVYDILKKQASGDLSDRLRIP	-1.32
HMHIDQVIRERRLALGLTQEELANKIGVSAPAVSKWEKRVSYPDITLLPALARILGTDVNTLLTFS	-0.365
HMHIVQEGDSLYGIARQYRITVEELRSLNALETADVIVPYQKLYV	-0.942
HMHKPLRILVYEELRMLIMTGQIKPGTRMMEIDLAESMGVSRTPVREAIRQLEKDNLVTIEPRRGAYVSD	-2.45
HMHKYQVGETVYYTSPTFGRAAATGSYIVVKLLPSEGDDYQYRIKSSGEAFERVAKESQLDR	-0.734
HMHLIPRESTYEIDGRRFVVDSVNLDFGKVSLQDITFRNATGFPIFRSESIEFMRRLVEISEAQRIAEL	-0.00889
HMHLPDNAVSIISELKMTPEEVLELIGKLPHDFLFLPYSQRKKIIVDLIPNKDYKLLMSLIKKFML	-1.12
HMHLTRYQYKVETEQEAVGLKELSSVHDLQIKENEATFQADSDAIDEILKTLLLYGVKKLEATPPTLED	-0.0366
HMHMSLTEKYKELTDLAVSAGVQNLNVREQDGVLYVDGDASGAVKQQLWDTYGKLDPDYTSGDLVLNI	0.0615
HMHNSPSPVATTILRFLQPVRAFVGDTEDMRTFGPFLREDVAMVPASQAKNLIRSGHAVEINP	-0.0361
HMHNSQTIIDNIKRIANEQNISLSKLAVISGLGKNTITSMTAKTNIKIETLTAIAKSLNVSIHDLTGE	-0.0839
HMHPDHRTATVPDAAAGRRFDAVLAELFPQFSRSKLTTWIKSGEVLLNGEVPRPRDAVVGGETVSLNVVL	-0.275
HMHPMVEAYLADLDRALSGSDPREHAETMSAVREHLADAIAPDATAEQVRHALDELGPVEAIAAG	0.0172
HMHPQISVEGVLPLKEAVEFVEREIISHAYSRYRATREVARHLGIDPSTVLRKAAKYGITVEPGKN	-0.658
HMHPRDREENKYLLLRGERIYEESIGEKRLYVEAALHKYEKALSSYDTGLIDEAKEEFKKFLEEIEEA	-0.0765
HMHPVEPDDPDQHILFQHLRGQDQVHIDALIRLSGWTADKVSSTLLFMELQGLVKQLPGMYYALE	-0.0844
HMHQAADFAGFITFNKDGVEQFSFGKYKNQTVVSVLEKDPGYYSWIQNADFPLYTKKILTAIRLAM	-0.577
HMHQALLEQSAEHAQQVKAYELLLTAERALDEENTEAFLSAMKSLKPLAENLDAKGKALYQELLPFVTEA	-0.0088
HMHQAVTVTKPARLFTGPDGKGVVRSLDVGMMLYPTGEKQGMMWEVEDELGNKGWVSSTLLELS	0.207
HMHSEEAALLHRYIDSLEEPQHTVVVMRDIGGYSFEEIASVVQLKEAHIWMILSRARRKLRELYIKTMDHH	0.138
HMHSFFGDNIKKLRTAKKMSQEQLADIFGITKAGISYWETGRSEPNFATVQKLADFFGVTTSDLLGEA	-0.194
HMHSFGLHVRNLRKKSNLTLSQLSNASGLSLSAISKIENNQISPSFINLIRLAEGLKMHIADLVTVK	-2.13
HMHSGFHSAILDVDRAVKEGKTLYEALNKYPYIFDETFRSLVRAGEASGELPSILSKLALYLEEQSK	-1.16
HMHSLLDDIPNVGEKRKRILLTHFQSLEEIKAATVEELERLPQINRKAAESIYTFFHSQPIR	-0.0679
HMHSRLEDIPGIGPRRRAMLLRHFGGLAELKAAGVEEIARVEGINMALAQRLWRALHGVPDPT	-0.339
HMHSVIALTIPADYAGLRLDQALAKLLPNWSRSRLQTWIAENRVILDGQITTIKQKVWGNELIQISPQD	-1.45

Sequence	soluble fraction (log2)
HMHTDQVLVMTRAVGQGEIVRNTDVGLTSVAVDRAVTTIPASQLDEIVGRHALVDLSAGQLLGSHSVGA	0.0253
HMHTNNALWAIADDMRARKDDGEFDTYREGYKWAANNIVKEGIHITAIKLEKAYHKAKSEGKV	-0.0602
HMHVSIAENIRRIRTQHDMTQEEFGKVAAVSAMAVSQWENGRAVPRMGAVQRIADYFNISKGEVID	-0.543
HMHWDIAQADAKQEVMDSSDDKEAIERIQANMFKDPKDHDQEYANKILNDMIDEIKEKGLEAMQHKFAQE	-0.379
HMHYELTPDAEKQLSALGLTAELVERILEEANDRRPIPGTNRTVYSLHGYSVEFSNTNHKIVSVRKG	-0.219
HMIAAPFVVKDIRVDGVQPATGEAIISSLPVKVGQTATDADVSNVVRQLFSLNRFQNVQATREGNTLVIKV	0.0499
HMIAGHLQIKNDYYYMVLSYTDSDGKRKQPWIPTGLPMKGNKKRAEKMLIETRQTYVPPVSSG	-3.27
HMIAIGDDARLDDAARFFRIAEDSYAAGDYRKSKENYIEARKLYAELGDHEKVNLINSKISAIDSIT	0.0633
HMIAVIKPSATAEQKAGLVDWIRGQGIDVHISEGHDYTVLGLIGDTSKIDMDLIASLDIVDSVKRVA	-0.0298
HMIDAHTTLLAKRLESKGFLALTDKSSAEEIYEEFGISKKAFKKALGALYKERLVRIGEDGVVWM	-1.43
HMIDDPTAVILRLVSEKQVIRRDDVVKALSVTPQKAYRLLKTMTTGGLLTRSGARRTTVYGLPDARER	-0.0945
HMIDEKVQAADKSIEIGNLSPLKGLVTDDEMHELEKLFEKVMALKDFEVNDVGAGRKYIEAYVSFFKFAEG	-0.661
HMIDELNVGDIRFYLNRYGKEIQIEIIRIGDDGSVYARTMADNALFRVPEARLKNIGEKVPAEEVQRG	-0.742
HMIDFTHEDIERLWNAIVHYVPERQKSDMAIDFIKSLEDIGVEHDEIKASAEYDPKLEEAINTVY	-0.352
HMIDIDNLEKAAILLLSMGTEAAAKVMQKLSRDEVQRLISKMASLSGVSSIEAKWTLQQFFNQYREQSG	-0.638
HMIDLSELINKTGSAYTNLRPSGTAVIGDDRVDVVTEGTFVEKDRPVKVVAVEGQRVVVREVE	0.178
HMIDMQIDTARFGTLGVDDDKIITFPKGLPGFEDERRFFLMDHSGSSKIKWLHSADNPGLALV	-0.0658
HMIDVGSKIRSLRKSKNISISTLAKNSDLSTGLISQIERNMVVPSIVAMWKISKALDINIGYFFE	-2.42
HMIEDMQQYIKEIRQMVSGRLDMTRNLEDEEIRDTIAELVAEESRKQYMTLTEKREVIEGVFNSMR	-0.0273
HMIEEIAVPEILGMQEEEAKAKIEGLGLVFNVTDRVKSNEYEKGEVMYQSVGPDDTTVKSGYPINVTISEG	-0.0543
HMIEEIPYSQFMSMLEEGKIDKAEIYQDSIIFSTKPDEQGKAGYYSIAYMKDNVLADRLYDAGVEFTPII	-0.156
HMIEGEQVRLLRLLERQEGGMLPLGDKSPASDILLLTGMSKKTFKMAVGALYKAQMITMTPTSIKLVK	-0.684
HMIEGETPEQTMERVSKDPEIVQILQDPVMQGILAQARENPAALQDHMKNPEVYKKINMLIAAGVIRT	0.0669
HMIEGSSDWKPNMILDDGGDLTKIIHEEYQDLLDDIRGLSEETTTGVLRLYEMEKENSLAVPAINVND	0.276
HMIEKGSDALEKELRKNNLSINEFLTNKNIDIILDELKLKDIDDLYVNIALGKYTPNQIIKIVNK	0.237
HMIELEGVISSVLAGTMFKVKLRGNGHEVLAHISGKMRKKFIRLVIGDAVKIEMSPYDMDKARIVYRI	-0.00875

Sequence	soluble fraction (log2)
HMIELTTDYKKRVVEALVSARENYSGSDSDFARKWSIDKTVYSRLKKGYQEGLLSVGKYIELGMELNVSSR	-1.34
HMIENITIELNKKALALDFELNKDLPEGVLETIPTLVSLMVRFDPLTVSYHFLRDYIDALLESNLNVDL	-0.0273
HMIENMQEYVRHIRAAVSDRLDLTREVEDDEIREVISQIVAEESRQNYLSLGERQTVIETVFNSMR	-0.2
HMIERLVEFVHTLRHSGVRVSMAEAMDAAEALRHTPITERQIFKTALQSVLVKEHQDIPAFDAAFERFFL	-1.54
HMIESLKGILHKKDPTIAIIDVGGVRLSVNITLSTYEKLEEINSSIELLTYFNVREDAMELYG	-0.157
HMIETIIGAEGKVLETIDNFNQKGVVALAGKEWTARSADASIIPEGAKVSVVEISGVKLIVTQN	0.067
HMIETLGDATFKRLKAMILDGTLEPGTRLSEKKFADHLGVSRTPVREAIGQLVSEGLAKRSAGSAPVVSS	0.0372
HMIFSIIPGQIRLTKMEIADGYLVLYGFTPSKEIYNLHLNPALKSIFTSSETSFIPVSGGLKFMSTNKL	-1.78
HMIGAKVLVNGQLHRDSYGEGPGQTESNATRLVNYINMKGSHPYHVTTLDGGWRGWVTADSVQV	0.223
HMIGDNNELFQKAQLTPREKEVALLLLQGETNSDIAKILYVGLSTVKKHISSIFEKTKVKSRTEFISKVR	-0.803
HMIGDYALILNIKGGSDWYLGNRVELLFTDGTSKIVTTDKDYNAKKDMVPTQIVTYKVNDNGEYSLKALPT	-2.01
HMIGEKLKEIREKTGMNKKEFAQYLGLKYTTYNNYETEAREPASDFLILISTKFDVSIDYLLGLQ	-0.674
HMIGIEALAGEIDRVRQVLTGGGGLSDVQLFSQLKALNEIKAALGASPDPRAPELVQRVDQLLEAAFRS	-0.0467
HMIGIGSDVPNKLKPAIYSFGLVAVGEKSVIPDGVQIGKNTAVSGVTSKEDYPDGVLESGETLIKA	0.0103
HMIGKLTSSKLAAIHKMKTNELLAHFTEKGFLNINDAGKYILTQQGKDVGAEFKTSQYGGYFLWPENIE	-0.841
HMIGTPLSEWQKDAPEEITRDQIAELVILKFVTVEQLALASDAQLQRIGMGGVGLRERAKLYLNRK	-1.15
HMIGVNMEKSTVEKFANELNLPIDLLLKQLESAGIKKTSGAEELLEADKSALLNYLQIEHGA	0.085
HMIGVQEFAMTYALTRRETEITQLIIQGKSNAMIAGELFISETTVKKHVSNIFEKTGVSRREELMVRVQAE	-1.44
HMIHANGLTDRQEMILEFIRSYISENNYPPSVREIGKGVGLASSASVHNNMKKLASLGFLNWDTD	-1.25
HMIHFDHPERSILDTMLYEKKGMTAQSARNRLAAYQFQGEDVFKPVSVLSGGELSRITLAIKNAMADK	-0.186
HMIHQPNNETTRNLIAGVVKKSLSVWETRVQVDGVDVTTAKDNLAEVHINIRYRLRHNQTPASLGLRLNLG	0.00106
HMIHSEDMDDHILGHKLVDQYLNKHIEFDNIKKAWNYHTVAIKKFGRYPHRNKILKRESTIEEIDFLKQP	0.149
HMIHSEEIQDHIFVKQLGEVFLRNHINYENIMKSWDDHTNVIKRFRRYPHRNKILNRESTIDEISFLKE	-0.0665
HMIIDTELMTRVMKFGFSQADASDLVAQHSDDLLRTAISRVEARAESKGMTPLETPAGYFRWTLQDLVRNP	-1.24

From the domain aggregation screens of Martell et al. (2025)
